# Test results taken from patent publication US20120231000A1.
# B1: oxid-humVEGF26-104 (designed binder)
# chain: CHPIETLVDIFQEYPDEIEYIFKPSAVPLMRCGGACNDEGLECVPTEESNITMQIMRIKPHQGQHIGEMSFLQHNKCEC
# modifications: N-terminal acetyl; C-terminal amide; oxidatively folded cystine knot (three disulfide bonds C1-C4, C2-C5, C3-C6)
# Target: Avastin™ (Bevacizumab)
# Assay: competition ELISA, inhibition of Avastin binding to coated humVEGF1-165
binder,measurement,value
B1,fold difference in affinity as compared to humVEGF1-165,< 5 fold
